Measurements taken from patent publication WO2023190852A1 (dated 2023).

How the values were obtained:
[1] = biological target: RBD derived from the Omicron strain (BA.1 strain; B.1.1.529) (SARS-CoV-2)
[2] = biological target: spike protein (RBD region) derived from the South African mutant strain (BA.4 strain) (SARS-CoV-2)
[3] = biological target: RBD derived from the Omicron strain (BA.4 and BA.5 strains) (SARS-CoV-2)

B1: natural human IgG antibody (HIG001697) (antibody, V domains shown)
VH: EVQLVESGGGLVQPGGSLRLSCTASEIIVTRNYMTWVRQAPGKGLEWVAQIYPGGTTYYADSVKGRFTISRHNSMNTMYLQMNSLRTEDTAVYYCARSRGGVDDFWGQGTLVTVSS
VL: DIQMTQSPSSLSASVGDRVTITCQASQDINKFLNWYQQKPGHAPKLLIYDALNLEAGVPSRFSGSASGTYFTFTITSLQPEDIATYYCQQYDNIPPTYGGGTKVDIKR
What does the source list for B1?
Kd [1]: 1.33 nM; Kd [2]: 0.282 nM; Kd [3]: 9.96 nM
